Columns and labels:
UPF3B-146-417 = target: T1, UPF3B-146-417 (human, UniProt Q9BZI7-2 146-417); assay: fluorescence anisotropy; FA: 5 nM probe, 150 mM NaCl, 25 mM HEPES pH 7.45, 1 mM TCEP, 20 C; EMSA: 250 nM probe, 25 mM HEPES pH 7.45, 2 mM MgCl2, 150 mM NaCl, 0.5 mM TCEP, on ice; conditions: protein: recombinant; tags: 6xHis removed by TEV; label: 5' HEX on strand 1; blunt
T1 sequence: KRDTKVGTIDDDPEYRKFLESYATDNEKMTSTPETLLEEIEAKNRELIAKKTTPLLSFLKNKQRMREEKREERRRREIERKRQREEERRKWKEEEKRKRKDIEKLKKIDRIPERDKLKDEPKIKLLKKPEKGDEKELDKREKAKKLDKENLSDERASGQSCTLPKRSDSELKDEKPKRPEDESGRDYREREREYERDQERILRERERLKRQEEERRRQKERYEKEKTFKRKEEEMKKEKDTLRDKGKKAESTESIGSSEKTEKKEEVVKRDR

UPF3B-41-143 (RRM-L) = target: T2, UPF3B-41-143 (RRM-L) (human, UniProt Q9BZI7 41-143); assay: as above; conditions: protein: recombinant; tags: 6xHis removed by TEV; label: 5' HEX on strand 1; blunt
T2 sequence: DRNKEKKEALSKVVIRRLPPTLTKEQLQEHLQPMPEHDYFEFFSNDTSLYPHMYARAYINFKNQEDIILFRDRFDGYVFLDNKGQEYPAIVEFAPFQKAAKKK

UPF3B-41-262 = target: T3, UPF3B-41-262 (human, UniProt Q9BZI7 41-262); assay: as above; conditions: protein: recombinant; tags: 6xHis removed by TEV; label: 5' HEX on strand 1; blunt
T3 sequence: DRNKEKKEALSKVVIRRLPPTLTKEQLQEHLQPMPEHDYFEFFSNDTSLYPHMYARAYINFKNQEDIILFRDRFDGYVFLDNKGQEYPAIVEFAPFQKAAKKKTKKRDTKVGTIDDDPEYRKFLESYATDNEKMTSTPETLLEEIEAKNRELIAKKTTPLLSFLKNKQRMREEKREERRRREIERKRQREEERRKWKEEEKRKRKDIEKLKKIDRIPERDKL

UPF3B-WT = target: T4, UPF3B-WT (human, UniProt Q9BZI7-2 1-470); assay: as above; conditions: protein: recombinant, tags: 6xHis removed by TEV
T4 sequence: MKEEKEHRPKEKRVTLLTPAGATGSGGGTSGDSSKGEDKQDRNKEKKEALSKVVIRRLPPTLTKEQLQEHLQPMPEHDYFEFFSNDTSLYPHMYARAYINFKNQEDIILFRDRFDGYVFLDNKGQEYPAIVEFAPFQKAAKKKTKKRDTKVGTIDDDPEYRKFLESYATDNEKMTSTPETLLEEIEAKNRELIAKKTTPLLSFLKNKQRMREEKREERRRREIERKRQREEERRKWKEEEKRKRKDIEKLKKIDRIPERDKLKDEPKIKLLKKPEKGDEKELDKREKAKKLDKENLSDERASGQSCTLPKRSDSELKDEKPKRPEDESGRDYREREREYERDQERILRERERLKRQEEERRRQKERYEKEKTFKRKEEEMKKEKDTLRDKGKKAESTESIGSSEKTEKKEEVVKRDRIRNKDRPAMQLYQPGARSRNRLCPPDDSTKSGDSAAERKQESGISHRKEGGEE

UPF3B-41-214 = target: T5, UPF3B-41-214 (human, UniProt Q9BZI7 41-214); assay: as above; conditions: protein: recombinant; tags: 6xHis removed by TEV; label: 5' HEX on strand 1; blunt
T5 sequence: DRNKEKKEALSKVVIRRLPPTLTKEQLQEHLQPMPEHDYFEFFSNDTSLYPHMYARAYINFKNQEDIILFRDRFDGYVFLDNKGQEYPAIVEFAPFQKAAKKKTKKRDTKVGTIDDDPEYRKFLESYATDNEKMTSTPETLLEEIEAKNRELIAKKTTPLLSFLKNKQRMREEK

UPF3B-146-256 = target: T6, UPF3B-146-256 (human, UniProt Q9BZI7 146-256); assay: as above; conditions: protein: recombinant; tags: 6xHis removed by TEV; label: 5' HEX on strand 1; blunt
T6 sequence: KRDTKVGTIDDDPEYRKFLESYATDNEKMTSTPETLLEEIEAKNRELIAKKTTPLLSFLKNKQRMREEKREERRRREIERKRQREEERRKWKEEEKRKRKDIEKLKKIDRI

UPF2L (120–1227) = target: T7, UPF2L (120–1227) (UniProt Q9HAU5 120-1227); assay: native gel or EMSA; 250 nM HEX-labelled ssRNA with 2 μM UPF3B-WT or UPF2L and increasing ratios of the other; on ice 1 h; 25 mM HEPES pH 7.45, 2 mM MgCl2, 150 mM NaCl, 0.5 mM TCEP; 4–20% Tris-Glycine native gel, Coomassie; conditions: both partners purified
T7 construct: UPF2, larger construct with wildtype activity, amino acids 120-1227; source: E. coli BL21 Rosetta2(DE3), purified (Ni-NTA, TEV, reverse IMAC, ion exchange)
T7 sequence (looked up): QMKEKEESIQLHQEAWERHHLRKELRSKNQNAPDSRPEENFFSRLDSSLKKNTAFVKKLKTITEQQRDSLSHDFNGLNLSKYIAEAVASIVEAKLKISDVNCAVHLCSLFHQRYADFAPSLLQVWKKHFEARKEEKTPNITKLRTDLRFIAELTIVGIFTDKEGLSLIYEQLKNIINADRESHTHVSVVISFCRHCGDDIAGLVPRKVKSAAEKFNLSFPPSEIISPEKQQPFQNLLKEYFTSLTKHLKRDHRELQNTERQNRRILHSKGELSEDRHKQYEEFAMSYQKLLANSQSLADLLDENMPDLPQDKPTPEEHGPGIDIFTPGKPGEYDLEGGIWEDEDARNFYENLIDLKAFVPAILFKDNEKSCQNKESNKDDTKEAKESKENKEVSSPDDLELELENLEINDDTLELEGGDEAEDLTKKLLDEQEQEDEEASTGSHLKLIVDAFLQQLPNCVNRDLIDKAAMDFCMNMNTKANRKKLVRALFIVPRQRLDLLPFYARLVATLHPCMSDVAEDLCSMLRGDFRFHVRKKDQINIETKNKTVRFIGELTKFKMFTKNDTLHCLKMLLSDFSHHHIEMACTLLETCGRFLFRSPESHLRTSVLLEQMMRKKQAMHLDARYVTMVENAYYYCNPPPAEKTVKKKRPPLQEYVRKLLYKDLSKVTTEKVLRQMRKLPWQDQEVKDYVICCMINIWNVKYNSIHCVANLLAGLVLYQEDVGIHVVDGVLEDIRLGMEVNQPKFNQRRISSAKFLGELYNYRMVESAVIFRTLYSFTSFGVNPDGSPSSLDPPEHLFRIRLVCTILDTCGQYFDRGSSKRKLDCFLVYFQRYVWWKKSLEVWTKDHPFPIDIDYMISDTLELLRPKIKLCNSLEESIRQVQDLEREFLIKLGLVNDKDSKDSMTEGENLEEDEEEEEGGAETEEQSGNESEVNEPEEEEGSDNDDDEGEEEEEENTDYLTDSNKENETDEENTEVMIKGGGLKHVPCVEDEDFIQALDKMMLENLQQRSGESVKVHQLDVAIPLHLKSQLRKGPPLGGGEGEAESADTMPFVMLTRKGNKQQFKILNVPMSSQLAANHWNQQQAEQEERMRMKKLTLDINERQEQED

[1] = target: UPF3B-41-143 (RRM-L);UPF2-MIF4GIII (human;human?, UniProt Q9BZI7;Q9HAU5 41-143;761-1054, |); assay: fluorescence anisotropy; FA: 5 nM probe, 150 mM NaCl, 25 mM HEPES pH 7.45, 1 mM TCEP, 20 C; EMSA: 250 nM probe, 25 mM HEPES pH 7.45, 2 mM MgCl2, 150 mM NaCl, 0.5 mM TCEP, on ice; conditions: protein: recombinant;recombinant; tags: 6xHis removed by TEV;6xHis removed by TEV; copies: 1;1; label: 5' HEX; single strand; 24-mer hairpin RNA
UPF2-MIF4GIII = UPF2-MIF4GIII (UniProt Q9HAU5 761-1054); assay: as above; conditions: protein: recombinant; tags: 6xHis removed by TEV; label: 5' HEX; single strand; 24-mer hairpin RNA

B1: 24mer dsRNA (dsRNA)
RNA 1: CCCUGAGCUGACGCAGCACCUGGG
RNA 2: CCCAGGUGCUGCGUCAGCUCAGGG
UPF3B-146-417
  Kd: 280 nM
UPF3B-41-143 (RRM-L)
  Kd: 9200 nM
UPF3B-41-262
  Kd: 37 nM
UPF3B-WT; label: 5' HEX on strand 1, blunt
  Kd: 15 nM
UPF3B-41-214
  Kd: 1200 nM
UPF3B-146-256
  Kd: 1800 nM

B2: UPF3B-WT (residues 1–470) (natural protein, human, UniProt Q9BZI7-2 1-470, looked up)
chain: T4 sequence
notes: UPF3B, human, isoform 2 (the predominant form found in cells), residues 1-470, printed length 470; also called full-length UPF3B; source: insect cells (MultiBac), purified (Ni-NTA, TEV, reverse IMAC, ion exchange)
UPF2L (120–1227)
  binding result: binds

B3: 24mer ssRNA (ssRNA)
RNA: CACUGAUCUGACGCUGCACCUGGG
[1]
  Kd: 620 nM
UPF2-MIF4GIII
  Kd: ~700 nM
UPF3B-WT; label: 5' HEX, single strand, 24-mer hairpin RNA
  Kd: 30 nM
